Here are results for 2 substances from paper PMC5083130.

The target in assay [1] is NCS-Orf16 (S. carzinostaticus). In words: SEC. On the technique in general: Size exclusion chromatography separates by hydrodynamic size, large species first.
Assay [2] deals with SgcJ (Streptomyces globisporus). As to the kind of experiment: SEC.

As to NCS-Orf16 (natural protein), in assay [1], the stoichiometry N (usually the number of molecules, sites or subunits per partner or assembly) was 2.
Substance SgcJ (natural protein) gave a stoichiometry N in assay [2] of 2.
